These results are taken from patent US20240294618A1 (CENTIVAX, published 2024).

Values joined by “and” are separate entries in the source; they are usually repeats but may differ in a detail not shown here. Equal values may be shown once. Read-outs that look alike come from different tables or passages of the source.

Assay [1] addresses T1, long-neurotoxin-cobra (naja) (alpha-neurotoxin), recombinant, Cobra-Avi-His (cape cobra (Naja nivea), UniProt P01390 1-71).
T1 sequence: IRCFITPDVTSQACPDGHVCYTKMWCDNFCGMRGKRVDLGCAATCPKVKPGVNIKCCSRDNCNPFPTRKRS

The target of assay [2] is T2, long-neurotoxin-taipan, recombinant, Taipan-Avi-His (coastal taipan (Oxyuranus scutatellus), UniProt A8HDK9 22-92).
T2 sequence: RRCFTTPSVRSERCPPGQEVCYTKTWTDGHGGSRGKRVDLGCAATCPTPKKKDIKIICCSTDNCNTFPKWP

Assay [3] addresses T3, long-neurotoxin-mamba (dendroapsis) (alpha-elapitoxin-dpp2d), recombinant, Mamba-Avi-His (black mamba (Dendroaspis polylepsis), UniProt C0HJD7 1-72).
T3 sequence: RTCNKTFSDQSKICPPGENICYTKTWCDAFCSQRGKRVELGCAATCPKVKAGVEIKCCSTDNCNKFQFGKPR

Assay [4] deals with T2, long-neurotoxin-taipan, recombinant, …. This is another data set of the same source.
Assay [5] shares this target. As to the kind of experiment: off-rate kinetics; platform not named.
Assay [6] has as its target T3, long-neurotoxin-mamba (dendroapsis) …. As to the kind of experiment: off-rate kinetics; platform not named.
Assay [7] has as its target T4, long-neurotoxin-krait (bungarus) (alpha-bungarotoxin) (krait (Bungarus caeruleus), UniProt D2N116 3-76).
T4 construct: also called Krait LNX; long-neurotoxin from Krait
T4 sequence: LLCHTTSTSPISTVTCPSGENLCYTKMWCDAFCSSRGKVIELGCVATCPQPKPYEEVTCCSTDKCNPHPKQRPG
Description: off-rate kinetics; platform not named.

B1: SNEURO_P01_B11 (antibody, V domains shown)
VH: QVQLQESGGGLVQPGGSLRLSCAASGFTFSNFDMHWVRQSPGKGLEWVSGLDHSGGAHYAGSVKGRFTISREDAKNSLDLQMNNLRVDDTAVYFCVRGTLYHYTSGSYYSDAFDIWGQGTLVTVSS
VL: DIVMTQSPSSLSASVGDRVTITCRASQGISDNLNWYQQKPGKAPKLLIYAASTLQSGVPSRLSGSGSGTDFTLTISSLQPEDFATYYCQQANSFPLTFGGGTKVEIKR
For B1, in assay [1], the Kd was found to be 0.41 nM, the koff is 9e-05 s⁻¹ and the kon came out at 220000 M⁻¹ s⁻¹. Also, in assay [2], the Kd stood at 35 nM, the koff stood at 0.0052 s⁻¹ and the kon is 150000 M⁻¹ s⁻¹. Moreover, in assay [3], the dissociation constant (Kd) was 2.1 nM, the koff was 0.00038 s⁻¹ and the on-rate (kon) came to 180000 M⁻¹ s⁻¹.

B2: SNEURO_P01_D09 (antibody, V domains shown)
VH: EVQLVESGGGFVQPGGSLRLSCAASGFTFSNFDMHWVRQSPGKGLEWVSGLDHSGGAHYAGSVKGRFTISREDAKNSLDLQMNNLRVDDTAVYFCVRGTLYHYTSGSYYSDAFDIWGQGTLVTVSS
VL: EIVLTQSPSSLSASVGDRVTITCQASQDISNYLNWYQQKPGKAPKLLIYAASSLESGVPSRFSGSGSGTDFTLTISSQQPEDFATYYCQQANSFPYTFGQGTKVEIKR
With B2, the Kd in assay [2] is 1.5 nM; in assay [4], 0.49 nM and 0.96 nM.

B3: SNEURO_P01_D09 FW germlined (antibody, V domains shown)
VH: EVQLVESGGGLVQPGGSLRLSCAASGFTFSNFDMHWVRQATGKGLEWVSGLDHSGGAHYAGSVKGRFTISRENAKNSLYLQMNSLRAGDTAVYYCVRGTLYHYTSGSYYSDAFDIWGQGTLVTVSS
VL: DIQMTQSPSSLSASVGDRVTITCQASQDISNYLNWYQQKPGKAPKLLIYAASSLESGVPSRFSGSGSGTDFTLTISSLQPEDFATYYCQQANSFPYTFGQGTKVEIK
On to B3, for which the koff in assay [5] was found to be 0.000366 s⁻¹; in assay [6], 0.000304 s⁻¹.

B4: SNEURO_P01_D09 VK germlined (antibody, V domains shown)
VH: EVQLVESGGGFVQPGGSLRLSCAASGFTFSNFDMHWVRQSPGKGLEWVSGLDHSGGAHYAGSVKGRFTISREDAKNSLDLQMNNLRVDDTAVYFCVRGTLYHYTSGSYYSDAFDIWGQGTLVTVSS
VL: DIQMTQSPSSLSASVGDRVTITCQASQDISNYLNWYQQKPGKAPKLLIYAASSLESGVPSRFSGSGSGTDFTLTISSLQPEDFATYYCQQANSFPYTFGQGTKVEIK
As to B4, the koff in assay [5] came out at 0.000392 s⁻¹; in assay [7], 5.59e-05 s⁻¹; in assay [6], 6.95e-05 s⁻¹.

B5: SNEURO_P01_D09 VK L3 NS->QS (antibody, V domains shown)
VH: EVQLVESGGGFVQPGGSLRLSCAASGFTFSNFDMHWVRQSPGKGLEWVSGLDHSGGAHYAGSVKGRFTISREDAKNSLDLQMNNLRVDDTAVYFCVRGTLYHYTSGSYYSDAFDIWGQGTLVTVSS
VL: EIVLTQSPSSLSASVGDRVTITCQASQDISNYLNWYQQKPGKAPKLLIYAASSLESGVPSRFSGSGSGTDFTLTISSQQPEDFATYYCQQAQSFPYTFGQGTKVEIKR
As for B5, the koff in assay [5] was 0.000304 s⁻¹.

B6: SNEURO_P01_D09 VK L3 NS->NT (antibody, V domains shown)
VH: EVQLVESGGGFVQPGGSLRLSCAASGFTFSNFDMHWVRQSPGKGLEWVSGLDHSGGAHYAGSVKGRFTISREDAKNSLDLQMNNLRVDDTAVYFCVRGTLYHYTSGSYYSDAFDIWGQGTLVTVSS
VL: EIVLTQSPSSLSASVGDRVTITCQASQDISNYLNWYQQKPGKAPKLLIYAASSLESGVPSRFSGSGSGTDFTLTISSQQPEDFATYYCQQANTFPYTFGQGTKVEIKR
Consider B6, for which, in assay [5], the off-rate constant (koff) was found to be 0.000769 s⁻¹.

B7: SNEURO_P01_D09 VH germlined (antibody, V domains shown)
VH: EVQLVESGGGLVQPGGSLRLSCAASGFTFSNFDMHWVRQATGKGLEWVSGLDHSGGAHYAGSVKGRFTISRENAKNSLYLQMNSLRAGDTAVYYCVRGTLYHYTSGSYYSDAFDIWGQGTLVTVSS
VL: EIVLTQSPSSLSASVGDRVTITCQASQDISNYLNWYQQKPGKAPKLLIYAASSLESGVPSRFSGSGSGTDFTLTISSQQPEDFATYYCQQANSFPYTFGQGTKVEIK
On to B7, for which the values for the koff in assay [5] and in assay [6] were 0.000488 s⁻¹ and 8.54e-05 s⁻¹, respectively.
